Reference: patent US20130052176, “APTAMER FOR NGF AND USE THEREOF” (SHIONOGI & CO., LTD, published 2013)

molecular target: T1, NGF (nerve growth factor) (human, UniProt P01138 P01138:122-241); experiment: cell_activity; neurite outgrowth, NGF 1.1 nM; SPR binding; conditions: tags: amine-coupled to CM5 chip in SPR; soluble in cell assays; chain copies: 2
Protocol: (§1) The neurite outgrowth inhibitory activity of the aptamer obtained in Example 1 was evaluated by using Neuroscreen-1 cell, which is a subclone of PC-12 cells.
(§2) The cells (2500 cells per well) were cultured for one day in an RPMI-1640 medium containing 2.5% horse serum and 1.25% fetal bovine serum in a 96 well flat-bottom plate coated with collagen type IV. […] Two days later, the cytoplasm and nuclei were stained using Cellomics Neurite Outgrowth Kit (manufactured by Thermo Scientific), and neurite length per cell was measured by Cellomics ArrayScan VTI (manufactured by Thermo Scientific). With the neurite length per cell obtained by the addition of NGF alone as inhibitory activity 0%, and that of the cell obtained by NGF free culture for 2 days as inhibitory activity 100%, the inhibitory activity of the aptamer was calculated from the neurite length per cell obtained by culturing with the addition of NGF and the aptamer in mixture. When the inhibitory activity was 0% or below, ‘0%’ is indicated.

T1 sequence (P01138 122-241, one chain of several): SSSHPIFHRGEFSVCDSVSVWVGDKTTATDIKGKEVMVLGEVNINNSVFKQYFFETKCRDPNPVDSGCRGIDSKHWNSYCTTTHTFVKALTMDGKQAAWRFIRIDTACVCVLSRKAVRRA

| Binder | IC50 |
| --- | --- |
| aptamer ID 51 (ssRNA, 2'-F at all pyrimidines) RNA: GGAGAACUUCGACCAGAGUCGAUAACGAACAAAACUCCAAAUAUGUGCGCAUAC | 2.7 nM |
| aptamer ID 11 (ssRNA, 2'-F at all pyrimidines) RNA: GGGAGAACUUCGCCAGAAGUUUGAAAGAAACCCAAAUAAAAAGUAUGUGCGCAUACA | 1.5 nM |
| aptamer ID 12 (ssRNA, 2'-F at all pyrimidines) RNA: GGGAGAACUUCGCCAGAAGUUUGAAAGAAACCCAAAUUAAAAGUAUGUGCGCAUACA | 1.4 nM |
| aptamer ID 14 (ssRNA, 2'-F at all pyrimidines) RNA: GGGAGAACUUCGCCAGAAGUUUGAAAGAAACCCAAUUAAAAAGUAUGUGCGCAUACA | 1.2 nM |
| aptamer ID 50 (ssRNA, 2'-F at all pyrimidines) RNA: GGGAGAACUUCGACCAGAGUCGAUAACGAACAAAACUCCCAAUAUGUGCGCAUAC | 2.6 nM |
| aptamer ID 18 (ssRNA, 2'-F at all pyrimidines) RNA: GGGAGAACUUCGCCAGAAGUUUGAAAGAAACCCAAAUAAAGAUGUGCGCAUCA | < 10 nM |
| aptamer ID 49 (ssRNA, 2'-F at all pyrimidines) RNA: GGGAGAACUUCGACCAGAAGUCGAUAACGAACAAAACUCCCAAUAUGUGCGCAUACA | 1.8 nM |
| aptamer ID 47 (ssRNA, 2'-F at all pyrimidines) RNA: GGGAGAACUUCGACCAGAGUCGAUAACGAACAAAACUCCCAAAUAUGUGCGCAUACA | 2.5 nM |
| aptamer ID 9 (ssRNA, 2'-F at all pyrimidines) RNA: GGGAGAACUUCGACCAGAAGUUUGAAAGAAACCCAAAUUAAAAAGAUGUGCGCAUCA | < 3 nM |
| aptamer ID 16 (ssRNA, 2'-F at all pyrimidines) RNA: GGGAGAACUUCGCCAGAAGUUUGAAAGAAACCCAAAUUAAAAAGAUGUGCGCAUCA | 1.1 nM |
| GGGAUAAAAAUAGAGUUUGATAAACACCUGUAUTAAAACCC (mixed, 5' cholesterol; 3' idT; 2'-F pyrimidines (except dT at 21,34) and a37,a38; 2'-OMe other purines except 2'-OH at 4,7,30) [aptamer ID 58] | 5.4 nM |
| GGGAUAAAAAUAGAGUUUGATAAACACCUGUAUUAAAACCC (mixed, 5' cholesterol; 3' idT; 2'-F pyrimidines (except dT at 21 and dC at 41) and a37,a38; 2'-OMe other purines except 2'-OH at 4,7,30) [aptamer ID 59] | 6.9 nM |
| aptamer ID 46 (ssRNA, 2'-F at all pyrimidines) RNA: GGGAGAACUUCGACCAGAAGUCGAUAACGAACAAAACUCCCAAAUAUGUGCGCAUAC | 2.6 nM |
| aptamer ID 41 (ssRNA, 2'-F at all pyrimidines) RNA: GGGAGAACUUCGACCAGAAGUCGAUAACGAACAAAACUCCCAAAGGUAAUGUGCGCAUACA | < 3 nM |
| aptamer ID 39 (ssRNA, 2'-F at all pyrimidines) RNA: GGGAGAACUUCGACCAGAAGUCGAUAACGAACAAAACUCCCAAAGGAAAUGUGCGCAUACA | < 3 nM |
| aptamer ID 13 (ssRNA, 2'-F at all pyrimidines) RNA: GGGAGAACUUCGCCAGAAGUUUGAAAGAAACCCAAAUUAAAGUAUGUGCGCAUACA | 1.3 nM |
| aptamer ID 15 (ssRNA, 2'-F at all pyrimidines) RNA: GGGAGAACUUCGCCAGAAGUUUGAAAGAAACCCAUUAAAAAGUAUGUGCGCAUACA | 1.9 nM |
| aptamer ID 44 (ssRNA, 2'-F at all pyrimidines) RNA: GGGAGAACUUCGACCAGAAGUCGAUAACGAACAAAACUCCCAAAGGAUGUGCGCAUACA | < 3 nM |
| aptamer ID 45 (ssRNA, 2'-F at all pyrimidines) RNA: GGGAGAACUUCGACCAGAAGUCGAUAACGAACAAAACUCCCAAAUAAUGUGCGCAUACA | < 3 nM |
| aptamer ID 17 (ssRNA, 2'-F at all pyrimidines) RNA: GGGAGAACUUCGCCAGAAGUUUGAAAGAAACCCAAAUUAAAGAUGUGCGCAUCA | < 1 nM |
| aptamer ID 40 (ssRNA, 2'-F at all pyrimidines) RNA: GGGAGAACUUCGACCAGAAGUCGAUAACGAACAAAACUCCCAAAUAUAUGUGCGCAUACA | < 3 nM |
| aptamer ID 42 (ssRNA, 2'-F at all pyrimidines) RNA: GGGAGAACUUCGACCAGAAGUCGAUAACGAACAAAACUCCCGGAAUAAUGUGCGCAUACA | < 3 nM |

molecular target: T1, NGF (nerve growth factor); experiment: cell_activity; neurite outgrowth, NGF 1.1 nM; SPR binding; blocks NGF-TrkA; conditions: tags: amine-coupled to CM5 chip in SPR; soluble in cell assays; chain copies: 2
Protocol: as §1, §2

| Binder | IC50 |
| --- | --- |
| aptamer ID 33 (ssRNA, 2'-F at all pyrimidines) RNA: GGGAGAACUUCGACCAGAAGUCGAUAACGAACAAAACUCCCAAAGGAAUAUAUGUGCGCAUACAUGGAUCCU | < 3 nM |
| aptamer ID 4 (ssRNA, 2'-F at all pyrimidines) RNA: GGGAGAACUUCGACCAGAAGUUUGAAAGAAACCCAAAUUAAAGUGAACAGUAUGUGCGCAUACUGGAUCCUCA | < 3 nM |
| aptamer ID 52 (ssRNA, 2'-F at all pyrimidines) RNA: GGGAGAACUUCGACCAGAAGUUUGAAAAAAACCCAAAUUAAAGUAUGUGCGCAUACA | 5.9 nM |
| aptamer ID 3 (ssRNA, 2'-F at all pyrimidines) RNA: GGGAGAACUUCGACCAGAAGUUUGAAAGAAACCCAAAUUAAAGGAACAGUAUGUGCGCAUACAUGGAUCCUCA | < 3 nM |
| aptamer ID 8 (ssRNA, 2'-F at all pyrimidines) RNA: GGGAGAACUUCGACCAGAAGUUUGAAAGAAACCCAAAUUAAAGUGAACAGAUGUGCGCAUCA | < 3 nM |
| aptamer ID 53 (ssRNA, 2'-F at all pyrimidines) RNA: GGGAGAACUUCGACCAGAGUCGAGAGCGAAAGAAACUCCCAAAUAUGUGCGCAUAC | 4.7 nM |
| aptamer ID 5 (ssRNA, 2'-F at all pyrimidines) RNA: GGGAGAACUUCGACCAGAAGUUUGAAAGAAACCCAAAUUAAAAACAGUAUGUGCGCAUACA | < 3 nM |
| aptamer ID 7 (ssRNA, 2'-F at all pyrimidines) RNA: GGGAGAACUUCGACCAGAAGUUUGAAAGAAACCCAAAUUAAAGGAAGUAUGUGCGCAUACA | < 3 nM |
| aptamer ID 34 (ssRNA, 2'-F at all pyrimidines) RNA: GGGAGAACUUCGACCAGAAGUCGAUAACGAACAAAACUCCCAAAGGAAUAUGUGCGCAUACA | < 3 nM |
| aptamer ID 36 (ssRNA, 2'-F at all pyrimidines) RNA: GGGAGAACUUCGACCAGAAGUCGAUAACGAACAAAACUCCCAAAAAUAUAUGUGCGCAUACA | < 3 nM |
| aptamer ID 35 (ssRNA, 2'-F at all pyrimidines) RNA: GGGAGAACUUCGACCAGAAGUCGAUAACGAACAAAACUCCCAAAGGUAUAUGUGCGCAUACA | < 3 nM |
| aptamer ID 54 (ssRNA, 2'-F at all pyrimidines) RNA: GGGAGAACUUCGACCAGAAGAUUUGAAAAAAACCCAAAUUAAAGUAUGUGCGCAUACA | 3 nM |
| aptamer ID 38 (ssRNA, 2'-F at all pyrimidines) RNA: GGGAGAACUUCGACCAGAAGUCGAUAACGAACAAAACUCCCAAAGGAAUAUAUGUGCGCAUAC | < 3 nM |
| aptamer ID 37 (ssRNA, 2'-F at all pyrimidines) RNA: GGGAGAACUUCGACCAGAAGUCGAUAACGAACAAAACUCCCGGAAUAUAUGUGCGCAUACA | < 3 nM |
| aptamer ID 6 (ssRNA, 2'-F at all pyrimidines) RNA: GGGAGAACUUCGACCAGAAGUUUGAAAGAAACCCAAAAAAGUGAACAGUAUGUGCGCAUACA | < 3 nM |
| aptamer ID 31 (ssRNA, 2'-F at all pyrimidines) RNA: GGGAGAACUUCGACCAGAAGUCGAUAACGAACAAAACUCCCAAAGGAAUAUAUGUGCGCAUACAUGGAU | < 3 nM |
| aptamer ID 2 (ssRNA, 2'-F at all pyrimidines) RNA: GGGAGAACUUCGACCAGAAGUUUGAAAGAAACCCAAAUUAAAGUGAAGUAUGUGCGCAUACAUUCCUCA | < 3 nM |

molecular target: T1, NGF (nerve growth factor); experiment: cell_activity; neurite outgrowth, NGF 1.1 nM; SPR binding; TF-1 IC50 <1.0 nM; conditions: tags: amine-coupled to CM5 chip in SPR; soluble in cell assays; chain copies: 2

| Binder | IC50 |
| --- | --- |
| aptamer ID 20 (ssRNA, 2'-F at all pyrimidines) RNA: GGGAGAACUUCGCCAGAAGUUUGAAAGAAACCCAAAUAAAGUGUGCGCACA | 1 nM |
| GGGAGAACUUCGCCAGAAGUUUGAAAGAAACCCAAAUAAGUGUGCGCAC (ssRNA, 2'-F at all pyrimidines) [aptamer ID 24] | < 1 nM |
| GGGAGAACUUCGCCAGAAGUUUGAAAGAAACCCAAAUAAGUGUGCGCACA (ssRNA, 2'-F at all pyrimidines) [aptamer ID 23] | < 1 nM |
| GGGAGACUCGCCAGAGUUGAAAGAAACCCAAAUAAGUGUGCGCAC (ssRNA, 2'-F pyrimidines; 2'-OMe at 36,38,40,42,44; other purines 2'-OH) [aptamer ID 26(6)] | < 1 nM |
| GGGAGACUCGCCAGAGUUGAAAGAAACCCAAAUAAAGUGUGCGCACA (ssRNA, 2'-F at all pyrimidines) [aptamer ID 25] | < 1 nM |

molecular target: T1, NGF (nerve growth factor); experiment: cell_activity; neurite outgrowth, NGF 0.38 nM; not tested by SPR; TF-1 IC50 <0.1 nM; conditions: tags:; soluble in cell assays; chain copies: 2
Protocol: as §1, §2

| Binder | IC50 |
| --- | --- |
| GGGAGACUCGCCAGAGUUGAAAGAAACCCAAAUAAGUGUGCGCAC (ssRNA, 2'-F pyrimidines; 2'-OMe purines except 2'-OH at 3,5,19-22,24,26; 5' PEG40GS2 (ssH linker); 3' idT) [aptamer ID 26(16)] | < 0.1 nM |
